The text below walks through data of US20260102527A1 (VRIJE UNIVERSITEIT BRUSSEL, published 2026).

Test [1] concerns the target T1, recombinant hCD8αβ protein (R&D systems) (human, UniProt P01732 22-182; P10966 22-170).
T1 construct: Bought protein; they are tied to this reagent by name only; also called human CD8 protein; human CD8β protein
The test can be described thus: SPR, Biacore T200, sdAb injected 250 to 1 nM, 25 °C, 1:1 fit. As to the method:
The affinity of purified anti-hCD8β single domain antibodies to recombinant hCD8αβ protein (R&D systems, Minneapolis, MN, USA) was determined using the BIACORE-T200 device (Cytiva, Freiburg, Germany). Surface plasmon resonance measurements were performed at 25° C. with HEPES buffered saline (HBS, 20 mM of HEPES pH 7.4, 150 mM of NaCl, 3.4 mM of EDTA 0.05% Tween-20) running buffer. The single domain antibodies were injected consecutively in 2-fold serial dilutions, from 250 to 1 nM. The association step was 100 s, the dissociation step was 200 s, and the two-step regeneration of 35 s at 30 μL·min-1, using 100 mM glycine at pH 3.0, was performed. Local curve fitting analysis was performed using the BIACORE evaluation software (Cytiva) by fitting the obtained sensorgrams to theoretical curves, assuming 1-1 binding geometries. For the determination of the equilibrium dissociation constant, the ratio of the association and dissociation rate constants was determined.
(In SPR one partner is held on a chip, and binding of the other changes the refractive index at the surface.)

The target in test [2] is T2, human CD8 (CD8αβ) on cells: SUP-T1 T cell lymphoma cells and primary human CD8+ T cells (human, UniProt P01732 22-235; P10966 22-210).
T2 construct: whole, on cells; SUP-T1 endogenously expresses human CD8; primary T cells came from healthy donors; The sdAbs are directed to the CD8β chain; also called SUP-T1 cells; primary CD8+ T cells
Nature of the test: flow cytometry on SUP-T1 cells, anti-HA detection. The protocol: Serial dilutions of anti-hCD8β single domain antibodies were incubated with 500.000 SUP-T1 cells in FACS buffer (HBSS (Gibco, Thermo Fisher Scientific) supplemented with 1% FBS and 2 mM EDTA (Duchefa Biochemie, Haarlem, The Netherlands)) for 1 h at 4° C. Cells were washed once with FACS buffer. Next, single domain antibody binding was detected by incubation of the cells with an Alexa Fluor®-488 tagged anti-HA antibody (1:1000 in FACS buffer, clone 16B12, Biolegend, San Diego, CA, USA) for 30 min at 4° C. Again, cells were washed once with FACS buffer. Single domain antibody binding was determined using the FACS CANTO II analyser (BD Biosciences, Franklin Lakes, NJ, USA). The mean fluorescence intensity of single domain antibody binding was determined using FlowJo version 10.
For orientation: In flow cytometry, cells or beads pass a laser one at a time.

For test [3], the target named is T1, recombinant hCD8αβ protein (R&D systems). The test can be described thus: equilibrium binding ELISA, coated hCD8αβ protein. As to the method: (§1) Wells of a 96 well MicroWell MaxiSorp flat bottom plate (Thermo Fisher Scientific) were coated with 0.2 μg of recombinant hCD8αβ protein, 0.2 μg of cynomolgus CD8β-Fc protein (Sino Biologicals) or PBS overnight at 4° C. The next day, wells were washed 3 times with PBS-T (PBS+0.05% Tween20 (Merck-Millipore, Burlington, MA, USA). Next, wells were blocked with blocking buffer (2% Skimmed milk (Regilait) in PBS) for 1 h at room temperature (RT). Different concentrations of single domain antibodies, diluted in blocking buffer, were added to the wells and incubated for 1 h at RT. Single domain antibody binding was detected using a mouse-anti-HA antibody (1:2000, clone 16B12, Biolegend) and alkaline-phosphatase conjugated goat-anti-mouse antibody (1:200, clone A90-116AP, Bethyl Laboratories, Montgomery, TX, USA). Wells were washed 5 times with PBS-T between all incubation steps. Binding was determined using p-nitrophenyl phosphate (2 mg/ml resuspended in AP blot buffer (12.12 g/L Trizma base, 10.17 g MgCl2·6H20/L, 5.84 g/L NaCl); Thermo Fisher Scientific). Absorbance at 405 nm was measured via a VersaMax ELISA Microplate Reader, using the SoftMax® Pro software (Molecular Devices, San Jose, CA, USA).
In general terms: An ELISA detects its analyte on a solid surface through an enzyme-linked reagent.

In test [4] the target is T3, cynomolgus CD8β-Fc protein (Sino Biologicals) (cynomolgus).
T3 construct: Bought protein; also called cynomolgus CD8β protein
Nature of the test: equilibrium binding ELISA, coated cynomolgus CD8β-Fc. As to the method:
as §1

Test [5] concerns the target T4, human CD8α on CD3- CD56+ NK cells (express hCD8α but not hCD8β) (human, UniProt P01732 22-235).
T4 construct: whole, on cells; also called cell-exposed CD8a
The test can be described thus: flow cytometry on primary NK cells, anti-HA detection.

The term Kd denotes the concentration at which binding is half-saturated.

T1 sequence (P01732 22-182 limits assumed, chain 1 of 2): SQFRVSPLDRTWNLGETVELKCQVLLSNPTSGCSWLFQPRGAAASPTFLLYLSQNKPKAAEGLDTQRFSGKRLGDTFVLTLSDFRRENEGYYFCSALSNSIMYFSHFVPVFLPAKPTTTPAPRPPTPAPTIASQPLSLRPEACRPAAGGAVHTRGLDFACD
T1 sequence (P10966 22-170 limits assumed, chain 2 of 2): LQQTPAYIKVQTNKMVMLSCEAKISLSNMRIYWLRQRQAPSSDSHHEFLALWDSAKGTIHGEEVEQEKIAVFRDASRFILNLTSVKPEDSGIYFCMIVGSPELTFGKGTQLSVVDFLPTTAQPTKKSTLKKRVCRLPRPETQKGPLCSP
T2 sequence (P01732 22-235, chain 1 of 2): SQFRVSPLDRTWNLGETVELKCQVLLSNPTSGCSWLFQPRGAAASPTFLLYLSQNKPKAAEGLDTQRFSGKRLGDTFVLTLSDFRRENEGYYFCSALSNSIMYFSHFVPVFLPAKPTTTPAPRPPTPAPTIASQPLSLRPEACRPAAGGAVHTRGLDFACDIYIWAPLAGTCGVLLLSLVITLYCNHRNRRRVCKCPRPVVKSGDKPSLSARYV
T2 sequence (P10966 22-210, chain 2 of 2): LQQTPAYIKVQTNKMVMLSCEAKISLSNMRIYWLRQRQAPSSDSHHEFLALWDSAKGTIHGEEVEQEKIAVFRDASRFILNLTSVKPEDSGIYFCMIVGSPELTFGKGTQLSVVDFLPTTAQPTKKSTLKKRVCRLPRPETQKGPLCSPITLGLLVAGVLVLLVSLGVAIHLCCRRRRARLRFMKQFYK
T4 sequence (P01732 22-235): as the sequence (P01732 22-235, chain 1 of 2) above

B1: anti-human CD8β single domain antibody 22772 (VHH)
VHH: DVQLVESGGGLVQPGGSLRLSCRASGHTFSDLSVGWFRRAPGKAREFVATTAWNGSIRYAESVKGRFTISRDNAANMMYLQMNSLKPEDTAIYYCAAAVGISYDYWGQGTQVTVSS
notes: detected through its C-terminal HA-tag; not shown: C-terminal HA-tag and His-tag (pMECS vector)
For the molecule B1, the Kd is 5 nM in test [1], 16.8 nM in test [2], 3.5 nM in test [3] and 1.6 nM in test [4].

B2: anti-human CD8β single domain antibody 22728 (VHH)
VHH: DVQLVESGGGLVQAGDSLRLSCVASGRTVSGGVMGWFRQAPGKGREFVASIKWESGRTYYVDSLKDGFTISRDSPKNTVYLQMTNLKPEDTAVYYCAAGIRVWQLSTLESTYDDWGQGTQVTVSS
notes: Llama-derived sdAb; detected through its C-terminal HA-tag in flow cytometry and ELISA; not shown: C-terminal HA-tag and His-tag (pMECS vector)
In the case of B2, the Kd in test [1] was 2.6 nM; in test [2], 2 nM; in test [3] it was 2.9 nM; in test [4], 1.7 nM. The binding result in test [5] is given as “no binding (tested: 100 nM)”.

B3: anti-human CD8β single domain antibody 22719 (VHH)
VHH: DVQLVESGGGLVQAGGSLRLSCRASGHTFSDTAVGWFRRVPGKEREFVATIAGSGSIRYSESVKGRFTISGDNAKNMVYLQMNRLKPEDTGVYYCAAAVGISYDYWGQGTQVTVSS
notes: as for B2
With B3, the Kd in test [1] came to 1 nM; in test [2], 16 nM; in test [3] it was 3.6 nM; in test [4], 4.4 nM. Further, in test [5], the binding result is reported as “no binding (tested: 100 nM)”.
